US5654179A, “Nucleic acid preparation methods” (HRI Research, Inc., priority 1994, dated 1997)

Experiments:
Taq polymerase [1] = assay: HIV PCR after inhibitor treatment of whole blood lysate; format: biochemical; conditions: with cofactor sodium bicarbonate
Protocol: The enzyme was inactivated by heating (95°-100° C., 10 minutes).

Taq polymerase [2] = assay: Mode III whole blood, globin PCR (KM-29/HRI-12) with inhibitor treatment; format: biochemical; conditions: 250 μg bovine transferrin, 10 mM sodium bicarbonate; 25,000 to 0 cells; no product without treatment
Protocol: Generally, PCR was carried out using 175-200 μM dNTPS (deoxyribonucleoside 5'-triphosphates) and 0.5 to 1.0 μM primers. Five units/100 μl of Taq polymerase were used. PCR reactions were overlaid with 30-100 μl light mineral oil. A typical PCR cycle for HIV amplification using a Perkin-Elmer Cetus DNA Thermal Cycler (Part No. N8010150) was: denaturation at 95° C. for 30 seconds; annealing at 55° C. for 30 seconds; and extension at 72° C. for 1 minute. PCR cycles were normally carried out in this manner for 35 cycles followed by 7 minutes at 72° C.
In one case, amplification of globin sequences was performed using primer pair KM-29 (SEQ ID NO:10)and HRI-12 (SEQ ID NO:11) to give a 174 bp product within the human beta globin gene.
Whole blood samples were lysed with protease K (500 μg/ml, 55° C. for 1 hour). The enzyme was inactivated by heating (95°-100°C., 10 minutes). Aliquots corresponding to 25,000, 10,000, 5,000, 2,000, 1000, 500 and 0 cells were made. Bovine transferrin (250 μg) was added to each sample as well as the cofactor sodium bicarbonate (adjusted to 10 mM) and the reaction was incubated at room temperature for 30 minutes. Concentrated PCR reagents were then added to each sample to a final volume of 100 μl. […]

Row | Molecule | activity as interfering reagent (Taq polymerase [1]) | globin PCR product after inhibitor treatment (Taq polymerase [2])
1 | rat transferrin: transferrin from rat (protein, UniProt P12346 20-698, looked up) Serotransferrin: VPDKTVKWCAVSEHENTKCISFRDHMKTVLPADGPRLACVKKTSYQDCIKAISGGEADAITLDGGWVYDAGLTPNNLKPVAAEFYGSLEHPQTHYLAVAVVKKGTDFQLNQLQGKKSCHTGLGRSAGWIIPIGLLFCNLPEPRKPLEKAVASFFSGSCVPCADPVAFPQLCQLCPGCGCSPTQPFFGYVGAFKCLRDGGGDVAFVKHTTIFEVLPQKADRDQYELLCLDNTRKPVDQYEDCYLARIPSHAVVARNGDGKEDLIWEILKVAQEHFGKGKSKDFQLFGSPLGKDLLFKDSAFGLLRVPPRMDYRLYLGHSYVTAIRNQREGVCPEGSIDSAPVKWCALSHQERAKCDEWSVSSNGQIECESAESTEDCIDKIVNGEADAMSLDGGHAYIAGQCGLVPVMAENYDISSCTNPQSDVFPKGYYAVAVVKASDSSINWNNLKGKKSCHTGVDRTAGWNIPMGLLFSRINHCKFDEFFSQGCAPGYKKNSTLCDLCIGPAKCAPNNREGYNGYTGAFQCLVEKGDVAFVKHQTVLENTNGKNTAAWAKDLKQEDFQLLCPDGTKKPVTEFATCHLAQAPNHVVVSRKEKAARVSTVLTAQKDLFWKGDKDCTGNFCLFRSSTKDLLFRDDTKCLTKLPEGTTYEEYLGAEYLQAVGNIRKCSTSRLLEACTFHKS | does not work as an interfering reagent | 
2 | Bovine Transferrin: bovine transferrin (protein, UniProt Q29443 20-704, looked up) Serotransferrin: DPERTVRWCTISTHEANKCASFRENVLRILESGPFVSCVKKTSHMDCIKAISNNEADAVTLDGGLVYEAGLKPNNLKPVVAEFHGTKDNPQTHYYAVAVVKKDTDFKLNELRGKKSCHTGLGRSAGWNIPMAKLYKELPDPQESIQRAAANFFSASCVPCADQSSFPKLCQLCAGKGTDKCACSNHEPYFGYSGAFKCLMEGAGDVAFVKHSTVFDNLPNPEDRKNYELLCGDNTRKSVDDYQECYLAMVPSHAVVARTVGGKEDVIWELLNHAQEHFGKDKPDNFQLFQSPHGKDLLFKDSADGFLKIPSKMDFELYLGYEYVTALQNLRESKPPDSSKDECMVKWCAIGHQERTKCDRWSGFSGGAIECETAENTEECIAKIMKGEADAMSLDGGYLYIAGKCGLVPVLAENYKTEGESCKNTPEKGYLAVAVVKTSDANINWNNLKDKKSCHTAVDRTAGWNIPMGLLYSKINNCKFDEFFSAGCAPGSPRNSSLCALCIGSEKGTGKECVPNSNERYYGYTGAFRCLVEKGDVAFVKDQTVIQNTDGNNNEAWAKNLKKENFEVLCKDGTRKPVTDAENCHLARGPNHAVVSRKDKATCVEKILNKQQDDFGKSVTDCTSNFCLFQSNSKDLLFRDDTKCLASIAKKTYDSYLGDDYVRAMTNLRQCSTSKLLEACTFHKP |  | decreasing product band corresponding to the decreasing amount of cells
